Test: soluble on expression in E. coli; label from the status in PepcDB or PDB records

Sequence: SYSKTNEAAIEKTRHIANAAVYGRPEYRYNGALNLHYRPKRTDSTLLLNGGMNLNGEVLIEGGNMIVSGRPVPHAYDHQAKREPVLENEWTDGSFKAARFTLRNHARLTAGRNTAHLDGDITAYDLSGIDLGFTQGKTPECYRSYHSGSTHCTPNAVLKAENYRALPATQVRGDITLNDRSELRLGKAHLYGSIRAGKDTAVRMEA
- soluble on expression in E. coli: not soluble

Sequence: NARTVVMVQFRDIEQETSMRRDLTRTEADLTRTEARLAAFLRNMAEGILVLDDDSRITYASEAASELLKVPVASLVGERFTEFCRAGQSRESVRRALELTTADGGSQSLRYEVELTPGERRWHAGSCQHIGIE
- soluble on expression in E. coli: not soluble

Sequence: MSLLDRLNDDMKQAMKNKEKEKLSVLRMLKAALQNEAIKLGKSPLSEDEELTVLSRELKQRKDSLQEFENAGRSDLVEKVKTEIEIVQSYMPTPLTEDELRELIEQTIKEVGASSKADMGKVMGAIMPKVKGRADGSLVNKLVQQQLS
- soluble on expression in E. coli: soluble

Sequence: MSLLAEKLQINSITPHPSVEYWSVCKVEALFETPFLELVYRATQVHRKHFNPRAIQLSTLMSIKTGGCPEDCSYCPQSARYHTGVQNQQLLDVDEIVAKAKIAKARGAGRFCMGAAWRGPKPKDIEKVTEIIKAVKSLGLETCGTFGLLQDGMAEDLKEAGLDYYNHNLDTAPEHYAEVIGTRRFDDRLSTLGKVRKAGLKVCCGGIVGMNETRKERAGLIASLANLDPQPESVPINQLVKVEGTPLADAEELDWTEFVRTIAVARITMPKSYVRLSAGRSGMTEEMQAMCFMAGANSIFYGDKLLVTDNPEEDGDQLLMAKLDLEPETAENKKLEGHHHHHH
- soluble on expression in E. coli: soluble

Sequence: MSLNFDFAENDFRPLAARMRPRTLDEYCGQQHLIGQGKPLRRAIESGHAHSMILWGPPGTGKTTLAEIIAYRINAEVERLSAVTSGVKDIREAIERAKRNRLADRQTILFVDEVHRFNKSQQDAFLPHIEDGTIIFIGATTENPSFELNNALLSRTRVYILKSLTTADVQRVLQQAVADEERGLGKARLNLQANLLHLLAEYVNGDARLALNCLELMADMAEEDENGKKIDRTLLTEVLGERQARFDKGGDRFYDLISAVHKSIRGSAPDAALYWYARIITAGGDPLYVARRLLAIASEDIGNADPRAMQVALSAWDCFTRVGAAEGERAIAQAIVYLAVAPKSNAVYQAFNAAKALAKQAPDYDVPRHLTNAPTQLLKELGNHAEYRYAHDEPNAYAAGENYFPEPLKDTRFYFPGARGMEIKIKEKLDWLRNLDQQSENIREGHHHHHH
- soluble on expression in E. coli: not soluble

Sequence: MPKGGPSGLSPVYAGIREDLDTLLRAYLQFKSVRFYDYKMMFERRGMVDIFNGRSESSEIIEFNEHLLVQCLSYMEEEACPGMPRSLKERLFGLYSLYTFFFIQQESHVVQIRMNPDCARNFRKFAQFLLVEKIYDAYVHDPCYAKSNQTDEKSHGVPVLANLNDPLCRVKALTEQFDMLGVIHREYSKLKDKFGITGNPLNDPTEILSRVIEKNLKAIEDSAIEKVFDVDQDEQSSVDALSSDGDDEETEKDPDIAENDDNVEETIEPSLPSRKRKRKRRQSKTVPISDPEVLDDLFAREILRDNQPTTSDDSAQRMNVDSKIVPGRKKSRKMSAKKAKINLPRIVKSEQIPPLRGIMKNEDLNNSESCIHENVDIVLTQSDSLKNEIKSEIVALNSSTKTSFKSSRRVSFREKENGELDNTIHEIPRRCHSSDESDEENSDEDPVAESSHRPHLTIQLKPIHEKYETSISMNLIYMKNKEKLISADDFNIFKPVEGAEETFETPFDSLIPEDIDSDDEI
- soluble on expression in E. coli: not soluble

Sequence: DLADRFAELERRYDARLGVYVPATGTTAAIEYRADERFAFCSTFKAPLVAAVLHQNPLTHLDKLITYTSDDIRSISPVAQQHVQTGMTIGQLCDAAIRYSDGTAANLLLADLGGPGGGTAAFTGYLRSLGDTVSRLDAEEPELNRDPPGDERDTTTPHAIALVLQQLVLGNALPPDKRALLTDWMARNTTGAKRIRAGFPADWKVIDKTGTGDYGRANDIAVVWSPTGVPYVVAVMSDRAGGGYDAEPREALLAEAATCVAGVLA
- soluble on expression in E. coli: soluble

Sequence: MGHHHHHHSHMKVGKNNFRPPPKVESSVVRIEPKNPPPPINFQEWDGLVRITFVRKNKTLSAAFKSSAVQQLLEKNYRIHCSVHNIIIPEDFSIADKIQQILTSTGFSDKRARSMDIDDFIRLLHGFNAEGIHFS
- soluble on expression in E. coli: not soluble

Sequence: MSKMKRRTNKPRATESANSSTKSSVLDEPTLVERKQQKKQILKFVQRTLEKMPQGLRAEFVGMRRFNDFEKMKAFKEAQEAGKNRYKDVGCLDNNRVKLEGPWPHEYIHANYVATPTNPKRFICTQAPLEKTCADFWYMCYQDKVEYIFMLCNLLEKGARKCFEYFPSKKGDVMDFEEGGQKISVKCESSVTYSFRSDAKANVTATEIVIEGPGEKTRKTTHYHWNDWPDRGVPAADMAVLELLENARPSKGPIVVHCSAGIGRTGSVVMLEYIMDQLLAGQIIDDGEKILVKIREQRNNSIQTDAQYLFVHQVILNYFRKKKLMEETGVQEAYDAFLEQYKKVVV
- soluble on expression in E. coli: soluble

Sequence: MRLKDLGERALLARLAPLGYPPEAPLPPGDDAGGVWAEGRAWLLKTDGFLYREVALKGMGPFEVGFRGVAATASDLLAKMGRPLGFTLGLFLPEDLEEGFVLELVRGAAEAAKRLGAFLLGGDTNRGVEVALTVSGYALAEAPLPRKALPGDLLYLAGDRWGRTGAAIRAHYEGRSLEGFPKIREAAFYPLPRLELLALSGLLRGSLDSSDGLAETLWQLADLGVGVEVEALPLYPDVLAFAGSEEAALELVLYGGEEFEAVLVVPQEGAAAVEARAKAKGLPLFRAGRVVAGEGVYLRGAPLPRKGYAHF
- soluble on expression in E. coli: soluble

Sequence: MPEVVFYPQNKSINVEEGTTILQAARSAGVIIESPCNGTGTCGKCKVRLDEKSLPNVLAKSRHYLSKEEEEQGYVLACETQITGDIKVELGENKQNGTLKILSRGHSFNIDLKPFIRKEYFVHEDVTKVFAGKEQLGIEAGDTTKENYGAVVDIGTTTLVASIVNLNNGDEIGTSSALNPQAVHAQDVLSRIKFSSDADGLKVMHSELTDKINSMIGKIALRAGISKEHIYEIVFSGNTCMLHLASNTCPESLGKYPYTPKISGAAYLDAAKYNIDISPFGIIYLPPIISAYVGADIVSGILASQLHEKDGVILFVDIGTNGEMVLASCGNLSATSTAAGPAFEGMNITCGMRAGEAAIEFFEIEEQGSINIKVIGETEAAGICGSGLLDMVGEFAAHGVIKKNGQFIDPESENVLHPKLAERLVRQDGKWIFKVTDKVFLSQKDIRQVQLAKGAVRAGIEFLLENKGVRASDVDKVLIAGSFGYHLREKSLINIGLLPKEFEGKVEFVGNTSLSGAKAFLLNQTYREKMKETVKSVEVLELANYKDFDRVFVRCLSFLEHHHHHH
- soluble on expression in E. coli: not soluble

Sequence: MGSDKIHHHHHHMDVTQLKMLHNAKVISEIKKGFSVDRKYQVDETYLVRVFPIDLLQERKQEFKIIQALDSQTPFVPKAYDFGFIEREGYMIISYLRGEDAESGMTHLSHSEQFKAGFSAGEILREVHKIPLDIPKMNWLDFQTAKFKRKVEELKELEITASFLTDTEKFVYKNIARLKNRPICLQHGDFHPANIILNNKKFVGLIDFNRLEFGDPLFDLAKIGFFTTEVSIPFARGNILGYIDKEEVTDFWNLYALYTAMHITSAVSWAAKNESRNFKKLMDYAVKTAASHDNFQKIVPNWMNEEEFK
- soluble on expression in E. coli: not soluble

Sequence: MEKRRVILVTDGDEFACRAIERVAAEIGGRCISRSQGNPTKLSGEQLVELILQTPHDPVFVMFDDCGALGEGAGEQALRYVATHEQIQVLGALAVASNTHQHEWTKVHVSIDRDGVMTEYGVDKEGFRDLEIGRINGDTVYCLDRLNIPLIVGIGDIGKMGYRDHAKYGAPITRKAVELILERSGGHAGKRKETESADREAAR
- soluble on expression in E. coli: not soluble

Sequence: MGSDKIHHHHHHMKTFLVCALEPSANLHLKEVLKAYKKDFGEFELHGIYDESLCKEFDLNSKPLYSSHEFSAMGFIEVLPLIFKAKKAIKELANLSFTQKINGILCIDSPAFNIPFAKALKKAGSKIPRIYYILPQVWAWKKGRIPIIESHFDILASILPFDNQFFNKSTYIGHPLLDEIKEFKNQEDINHTFSKKDDEKTIAFLPGSRRSEIRRLMPIFKELSQKFKGKKILCVPSFNLEKLEVYGDISEFKIESNTPKVLKKADFAFICSGTATLEAALVGTPFVLAYKAKAIDIFIAKLFVKLKHIGLANIFCDFAGKEALNPEFLQDKVNVLNLYEAYNKYDYKAFFAKVDFLKEYLQFGSAKNLAKILNEI
- soluble on expression in E. coli: not soluble

Sequence: MSKKKGLSAEEKRTRMMEIFSETKDVFQLKDLEKIAPKEKGITAMSVKEVLQSLVDDGMVDCERIGTSNYYWAFPSKALHARKHKLEVLESQLSEGSQKHASLQKSIEKAKIGRCETEERTRLAKELSSLRDQREQLKAEVEKYKDCDPQVVEEIRQANKVAKEAANRWTDNIFAIKSWAKRKFGFEENKIDRTFGIPEDFDYID
- soluble on expression in E. coli: soluble

Sequence: SAESSKLSATTVEAAPAMIKAKDVISPSEKEESDQTEITKVSVLKNLDEKEMIKEFADRLQRLEAKVDLLVTKADLLAIKADIQELLISAKGEKVPAMKTSAKASSESDDSYMDTSSEDESSSAEEPVNKPAASAAKPATKDSLFSAGFKPAAKDSLFSAGFKPDSLFSAGFEPAAKDSLFSAGFKPGSLFSAGFEPAAKDSLFSAGFKPDSLFSVGVKPAAKDSLFSVGVNGRSFSVTGFDASLPVDDIKSALSKYFSSFGEITRVFVPPSHGTGGSLGYAYIDLKEGAEKALELGRHDVGGWDLVVGKAEPIRSGSTWPFPGRCGNQGRCTFC
- soluble on expression in E. coli: soluble

Sequence: MAHHHHHHMSAGDTPVSLFLQACNQEGVKTPNPKLVEFFQSHETFDSILEIDLSNNYIGNRGLLAVLGVIEHLSCFRCLNAMDQKLYNSDFSEEAVKGNAVIDRIVEVFKVHPTANSLNLSNNPISNYAGRKLLSLAQVNRRMCLIEVSDTRIDFDLRNKIAKQCEENTRNMWDAEQDENANSCAVFGENLEWVPTQATADLTSLGAGRARRQTVRVEGIDPEAAKNYVPPVHEKSQEDTDMICKLLSHNVLFGFLGSKDILTVAGAMYREEFVKDERIIEFGQTHCDKLYVIQSGEADVIKEGQKVFVKTEGTAVGELELLYDTPAVATVKVSTEVLVAWVLDRETYRNLVMGSCIRRRETYMSMLAKVPFLQSLDAYERMQIADALTSDEFAAGDYIIHYDEEGEWLYIIIEGTVEVIGRDAAGNKTKVCEFHSGDHIGELEFLNKHRTVADIVAVTGVTTAKLNRRHFEMCMGPVMDVLKRNSTSAKYDYYQQVLQQQQQGAPAAVQ
- soluble on expression in E. coli: soluble

Sequence: MPRALNDRSSALTAQNLIALPERFGCPVWAYDGDIIAERINQLRHFDVIRFAQKACSNIHILRLMREQGVKVDSVSLGEIERALHAGYQPGQEPAEIVFTADLLDQATLLRVTELNIPVNAGSIDMLDQLGQQAPGHPVWLRVNPGFGHGHSQKTNTGGENSKHGIWHEELPRALKKIEHYGLTLVGIHMHIGSGVDYQHLEQVCDAMVQQVITLGHDISAISAGGGLSIPYQFGDDVIDTEHYYGLWNSARERIAAHLGHPVSLEIEPGRFLVAESGVLIAQVRAVKDMGRRHYVLVDAGFNDLMRPAMYGSYHHISLLPADGRDLTSAPLIDTVVAGPLCESGDVFTQQEGGGVETLALPAAVIGDYLVFHDTGAYGASMSSNYNSRPLLPEVLFEKGQPRLIRRRQTIEELIDLERV
- soluble on expression in E. coli: not soluble

Sequence: AENDKPQYLSDWWHQSVNVVGSYHTRFGPQIRNDTYLEYEAFAKKDWFDFYGYADAPVFFGGNSDAKGIWNHGSPLFMEIEPRFSIDKLTNTDLSFGPFKEWYFANNYIYDMGRNKDGRQSTWYMGLGTDIDTGLPMSLSMNVYAKYQWQNYGAANENEWDGYRFKIKYFVPITDLWGGQLSYIGFTNFDWGSDLGDDSGNAINGIKTRTNNSIASSHILALNYDHWHYSVVARYWHDGGQWNDDAELNFGNGNFNVRSTGWGGYLVVGYNFHHHHHH
- soluble on expression in E. coli: soluble

Reference: the DeepSol protein solubility set
